The results in this text go back to publication PMC466950 (Science Advances, 2024).

In data set [1] the target is human E2 subunit within hCore (human) (UniProt P10515). Description: gel densitometry of the purified complex.
Data set [2] has as its target porcine E2 of native PDHc (Sus scrofa domesticus (endogenous in porcine liver)). In words: gel densitometry of the purified complex.
The data set “cryo-EM structure” deals with the molecule itself. In words: cryo-EM structure.

The molecule “human E3BP subunit within hCore (from UniProt O00330 54-501) (natural protein)” had an E3BP chains per 60-subunit core (E3BP molecules per 60-subunit assembly) in data set [1] of 13. In data set [2], “porcine E3BP of native PDHc (natural protein)” gave an E3BP chains per 60-subunit core (E3BP molecules per 60-subunit assembly) of 13.

B1: human E2 homo-60-mer (enzyme)
chain: SLPPHQKVPLPSLSPTMQAGTIARWEKKEGDKINEGDLIAEVETDKATVGFESLEECYMAKILVAEGTRDVPIGAIICITVGKPEDIEAFKNYTLDSSAAPTPQAAPAPTPAATASPPTPSAQAPGSSYPPHMQVLLPALSPTMTMGTVQRWEKKVGEKLSEGDLLAEIETDKATIGFEVQEEGYLAKILVPEGTRDVPLGTPLCIIVEKEADISAFADYRPTEVTDLKPQVPPPTPPPVAAVPPTPQPLAPTPSAPCPATPAGPKGRVFVSPLAKKLAVEKGIDLTQVKGTGPDGRITKKDIDSFVPSKVAPAPAAVVPPTGPGMAPVPTGVFTDIPISNIRRVIAQRLMQSKQTIPHYYLSIDVNMGEVLLVRKELNKILEGRSKISVNDFIIKASALACLKVPEANSSWMDTVIRQNHVVDVSVAVSTPAGLITPIVFNAHIKGVETIANDVVSLATKAREGKLQPHEFQGGTFTISNLGMFGIKNFSAIINPPQACILAIGASEDKLVPADNEKGFDVASMMSVTLSCDHRVVDGAVGAQWLAEFRKYLEKPITMLL
What is called stoichiometry N is a count of units in the complex or per binding partner. Take B1: in the data set “cryo-EM structure”, the “stoichiometry N” value stood at 60 subunits.

B2: human E2 subunit within hCore (enzyme)
chain: B1 chain
modifications: one lipoamide in each of the two lipoyl domains (fully lipoylated by ESI-MS); N-terminal methionine present
As for B2, the binding result in “cryo-EM structure” was “binds”.
